T1: AJAP-1 on tsA201 cells (UniProt A2ALI5 44-412)
T1 construct: adherens junction-associated protein 1; cDNA from Source BioScience in pcDNA3; source: tsA201 cells, transfected, on cells
T1 sequence (looked up): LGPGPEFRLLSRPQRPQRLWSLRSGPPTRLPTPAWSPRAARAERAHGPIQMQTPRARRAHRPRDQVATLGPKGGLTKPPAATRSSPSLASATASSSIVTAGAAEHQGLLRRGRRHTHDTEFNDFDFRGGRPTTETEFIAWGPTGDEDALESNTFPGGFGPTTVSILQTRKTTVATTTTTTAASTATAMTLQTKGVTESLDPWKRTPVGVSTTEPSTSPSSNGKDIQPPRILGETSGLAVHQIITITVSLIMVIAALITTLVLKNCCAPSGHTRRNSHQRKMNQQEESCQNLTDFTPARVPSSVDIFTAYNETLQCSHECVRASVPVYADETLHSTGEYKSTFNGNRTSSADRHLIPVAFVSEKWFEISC

T2: HA-PIANP on tsA201 cells (UniProt Q6P1B3 28-278)
T2 construct: PILRα-associated neural protein; cDNA from OriGene in pCMV6 with an HA-tag insertion after amino acid 27; source: tsA201 cells, transfected, on cells; not shown: HA, internal (after residue 27), kept
T2 sequence (looked up): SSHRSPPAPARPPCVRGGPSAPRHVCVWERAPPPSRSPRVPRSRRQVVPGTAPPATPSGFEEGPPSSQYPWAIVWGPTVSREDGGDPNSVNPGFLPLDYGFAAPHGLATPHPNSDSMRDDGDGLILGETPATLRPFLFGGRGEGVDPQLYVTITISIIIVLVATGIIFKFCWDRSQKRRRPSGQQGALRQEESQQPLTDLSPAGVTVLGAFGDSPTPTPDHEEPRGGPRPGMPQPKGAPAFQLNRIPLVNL


Experiments:
Myc-GB1a = Myc-GB1a (UniProt Q9Z0U4)
APP on tsA201 cells = molecular target: T3, APP on tsA201 cells (UniProt P05067-4 18-695); assay: immunostaining of cells or tissue; cell surface binding: transfected tsA201 cells incubated 30 min at room temperature with 0.2 to 2000 nM purified Myc-SD1/2 in OptiMEM, fixed, bound SD1/2 stained with anti-c-Myc and put into ratio with the expressed protein; apparent KD from a Hill equation with a coefficient of 1; conditions: one partner purified
T3 construct: expression was read with goat anti-APP; source: tsA201 cells, transfected, on cells

AJAP-1 on tsA201 cells = molecular target: T1, AJAP-1 on tsA201 cells; assay: as above; conditions: one partner purified
HA-PIANP on tsA201 cells = molecular target: T2, HA-PIANP on tsA201 cells; assay: as above; conditions: one partner purified

Row | reduction of BACE1-mediated Aβ40 secretion into the medium of HEK293 cells in the presence of GB1a/2 receptors, ELISA 32 h post-transfection (Myc-GB1a) [%] | reduction of the APP-βCTF/APP-FL ratio (BACE1 cleavage of APP) in HEK293 cells in the presence of GB1a/2 receptors, immunoblot densitometry (Myc-GB1a) [%] | reduction of the sAPPβ/APP-FL ratio (BACE1 cleavage of APP) in HEK293 cells in the presence of GB1a/2 receptors, immunoblot densitometry (Myc-GB1a) [%] | Kd (APP on tsA201 cells) [nM] | Kd (AJAP-1 on tsA201 cells) [nM] | Kd (HA-PIANP on tsA201 cells) [nM] | Molecule
1 | 77 | 60 | 57 |  |  |  | APP (APP695, pCAX-APP695) (from UniProt P05067-4 18-695) (natural protein)
2 |  |  |  | 188 | 6.4 | 29.1 | recombinant SD1/2 protein (sushi domains 1 and 2 of GB1a) (domain or fragment, UniProt Q9Z0U4 20-158, looked up, the two N-terminal sushi domains (SD1 and SD2) of the GABAB receptor subunit GB1a; the NMR samples are called unlabeled recombinant SD1/2; also called Myc-SD1/2; Myc-SDI/II) QTPNATSEGCQIIHPPWEGGIRYRGLTRDQVKAINFLPVDYEIEYVCRGEREVVGPKVRKCLANGSWTDMDTPSRCVRICSKSYLTLENGKVFLTGGDLPALDGARVEFRCDPDFHLVGSSRSVCSQGQWSTPKPHCQV
